In patent US20160346402A1:

Molecular target: TPP-2305, hTNFRSF12 amino acids a28-80 (recombinant human TWEAKR protein) (human) (UniProt Q9NP84)
Test: SPR (Biacore T100), antibody captured, TWEAKR TPP-2305 as analyte, 1:1 model

Kd: 2.9 nM
koff: 0.011 s⁻¹
kon: 3.8e+06 M⁻¹ s⁻¹
B1: ITEM-1 (antibody, from another filing, V domains shown)
VH: EVKLEESGGGLVQPGGSMKLSCVASGFSFSNYWMNWVRQSPEKGLEWVAEIRLKSNNYATHYAESVKGRFTISRHDSKSSVYLQMNNLRAEDTGIYYCTRAYADYFDYWGQGTTLTVSS
VL: DIVLTQSPASLVVSLGQRATISCRASQSVSTSTYSYMHWYQQKPGQPPKILIKYASNLESGVPARFSGSGSGTDFTLNIHPVEEEDTATYYCQHSWEIPYTFGGGTKLEIKR
